Measured values taken from article PMC6080891 (The Journal of General Physiology, 2018).

Target: the molecule itself
Test: native gel or EMSA

B1: UNC-103::GFP (natural protein, C. elegans, UniProt G5EFJ9 1-829, looked up)
chain: MKTAVFGRDSGEPGSPCGAPPSLTFTPPATLVPPTHHHSRSTNRGGVSGTGGGGSGGLQGAPGAGGPRASHSSRRTSRLHNNVSALGVLSLGADVLPEYKLQPTRIHHCTIVHYSPFKAVWDWIILLLVIYTAVFTPYVAAFLLRELQDTAKKSRFTEPLEIVDLIVDIMFIVDIIINFRTTYVNENDEACQVVSDPGKIATHYFKGWFIIDMVAAVPFDLLLVSTNSDETTTLIGLLKTARLLRLVRVARKLDRYSEYGAAVLLLLMATFALIAHWLACIWYAIGSAELSHKEYTWLHQLSKQLAQPYTSTNGTIPTGGPTLKSRYVTSLYFTLSTITSIGFGNVSATTDSEKIFTIIMMILGSLMYASVFGNVSAIIQRLYSGTARYHTEMSRLREFIRFHQIPNPLRQRLEEYFQHAWSYTNGIDMNLVLKGFPDCLQADICLHLNRNLLSGCAAFAGSTPGCLRALSMRFRTTHSPPGDTLVHRGDILTGLYFIARGSVEILNDDNTVMGILGKDDIFGENPLLYDEVGKSSCNVRALTYCDLHKILRDDLLDVLDMYPEFAETFCKNLTITYNLRDDAQSLRKKFDRHKLLRMSSSMNKDRYTTPPDGDHGNAAVRRSAESVSRCDSNPIDRRQSAGSRSSSRCSPPHAALTATRSEATPLLRRSTNHHEEDDALFDDIRAFARGNTVTMSPTVAGNSVSPTTAIHNDGIHSQQLSDRSDDYEERRANMFGRRLESIESQMERMQNKFNSDMETLIKLVKEQSIIRNNGSSNEEPNARYRPNNYISSAIRLPNGGGGGVVDEMRVSRLSSHEPPTPTQETDTIL
stoichiometry N: 4
